Values of other authors, collected in publication PMC8031367.

Target: Cys403 (UniProt position 403, RPVIHCRAGVG)
Experiment: chemical modification

For “YopH (Yersinia protein tyrosine phosphatase) (Yersinia pestis (as stated for YopH in this article; the title of the cited source, ref 59, says only 'Yersinia'))”, the pKa is listed as 4.67.
